Measurements published in patent US7547509B2, “Cyanovirin variant-polymer conjugates” (priority 2002, dated 2009).

Key:
[1] = test system: influenza A/Udorn (H3N2); test: Influenza virus inactivation assay (protection of MDCK cells); type: cell-based; conditions: read on day 5, read-out: ED50 (dose required to protect 50% of MDCK cells from influenza infection)
[2] = Acute toxicity dose escalation study in mice; type: in vivo, Hsd:ICR(CD-1) mice; conditions: intravenously on three consecutive days, high doses / equivalent dose
Method: To compare the acute toxicity of native CV-N and the PEG30 kD-MAL-CV-N(Q62C) conjugate, an in vivo dose escalation study was performed in which Hsd:ICR(CD-1) mice were administered modified or unmodified CN-N intravenously on three consecutive days.

[3] = test system: HIV; test: Anti-HIV bioassay conducted at the National Cancer Institute; type: cell-based; conditions: against HIV, methods of U.S. Pat. No. 5,843,883
Method: Bioassays were conducted at the National Cancer Institute using the methods described in U.S. Pat. No. 5,843,883 (column 20, lines 20-55), which patent is incorporated herein by reference.

B1: Cyanovirin-N (protein, listed as Nostoc ellipsosporum)
chain: LGKFSQTCYNSAIQGSVLTSTCERTNGGYNTSSIDLNSVIENVDGSLKWQPSNFIETCRNTQLAGSSELAAECKTRAQQFVSTKINLDDHIANIDGTLKYE
For B1, the EC50 [1] was 2.56 nM, the “acute toxicity (observation)” value [2] was “death of all of the mice” and the ED50 [3] was 1 ng/mL.
